The source of these data is the Human Domainome abundance scans (Beltran et al. 2025).

± gives the uncertainty stated by the source.

To fix the notation:
B1: Chromodomain-helicase-DNA-binding protein 3, residues 374 to 426; numbered along this chain, Q12873 (parent)
chain: YETDHQDYCEVCQQGGEIILCDTCPRAYHLVCLDPELDRAPEGKWSCPHCEKE

This series covers variants of B1. Description: abundance fitness (aPCA) (normalised: wild type 0, dead -1); higher = more abundant; growth selection in yeast, the domain comes from the species named. The conditions noted are these: Homo sapiens.
Turning to C21I, the abundance fitness is -0.818 ± 0.21.

Take C21Q: the abundance fitness is -0.822 ± 0.2.

Turning to C21H, the abundance fitness was -0.806 ± 0.25.

Take C21G: the abundance fitness was -0.637 ± 0.12.

C21W: the abundance fitness is -0.831 ± 0.15.

With C21L, the abundance fitness was -0.74 ± 0.13.

For C21D, the abundance fitness is -0.868 ± 0.26.

As to C21P, the abundance fitness is -0.984 ± 0.34.

For the variant C21K, the abundance fitness was -0.846 ± 0.2.

For C21V, the abundance fitness is -0.57 ± 0.13.

Consider C21A, for which the abundance fitness was -0.778 ± 0.16.

Take C21T: the abundance fitness was -0.381 ± 0.17.

Regarding C21Y, the abundance fitness is -0.692 ± 0.16.

For the variant C21S, the abundance fitness is -0.569 ± 0.13.

As to C21E, the abundance fitness is -1.15 ± 0.28.

With H29Y, the abundance fitness was -1.1 ± 0.19.

For H29D, the abundance fitness was -0.615 ± 0.15.

As to H29I, the abundance fitness was -1.09 ± 0.22.

In the case of H29T, the abundance fitness is -0.846 ± 0.15.

As to H29R, the abundance fitness was -0.786 ± 0.097.

Take H29E: the abundance fitness is -0.872 ± 0.14.

As for H29F, the abundance fitness is -1.07 ± 0.19.

As to H29N, the abundance fitness was -0.383 ± 0.17.

Consider H29G, for which the abundance fitness is -0.844 ± 0.11.

Consider H29S, for which the abundance fitness was -0.852 ± 0.13.

Take H29P: the abundance fitness is -0.801 ± 0.17.

For the variant H29A, the abundance fitness is -0.745 ± 0.11.

With H29V, the abundance fitness is -0.745 ± 0.11.

On to H29W, for which the abundance fitness is -0.656 ± 0.14.

With H29C, the abundance fitness is 0.029 ± 0.13.

Regarding H29L, the abundance fitness was -0.763 ± 0.12.

For H29K, the abundance fitness was -0.912 ± 0.17.

In the case of L30C, the abundance fitness is 0.072 ± 0.12.

As to L30A, the abundance fitness was 0.053 ± 0.11.

Turning to L30D, the abundance fitness was -0.264 ± 0.17.

For the variant I19S, the abundance fitness is -0.162 ± 0.11.

Consider I19K, for which the abundance fitness was 0.19 ± 0.13.

Take I19V: the abundance fitness was -0.153 ± 0.1.

On to I19H, for which the abundance fitness is -0.111 ± 0.25.

On to I19L, for which the abundance fitness is 0.093 ± 0.097.

As to I19R, the abundance fitness is -0.101 ± 0.1.

For I19N, the abundance fitness amounted to 0.167 ± 0.22.

Consider I19Y, for which the abundance fitness is 0.117 ± 0.18.

Regarding I19Q, the abundance fitness was 0.068 ± 0.16.

Regarding I19D, the abundance fitness was -0.248 ± 0.14.

For the variant I19M, the abundance fitness was found to be 0.313 ± 0.14.

I19F: the abundance fitness is -0.277 ± 0.22.

With I19T, the abundance fitness was 0.051 ± 0.11.

For the variant I19G, the abundance fitness was -0.177 ± 0.087.

For Q14E, the abundance fitness was -0.029 ± 0.43.

Turning to Q14A, the abundance fitness is -0.043 ± 0.12.

With Q14I, the abundance fitness was -0.17 ± 0.17.

Q14H: the abundance fitness is -0.159 ± 0.15.

Q14G: the abundance fitness is -0.151 ± 0.15.

Q14C: the abundance fitness was -0.036 ± 0.13.

Take Q14L: the abundance fitness was -0.127 ± 0.1.

Take Q14R: the abundance fitness came to 0.017 ± 0.088.

Regarding Q14T, the abundance fitness is -0.051 ± 0.1.

With Q14S, the abundance fitness was -0.192 ± 0.096.

Turning to Q14M, the abundance fitness was -0.022 ± 0.14.

Regarding Q14Y, the abundance fitness was -0.501 ± 0.2.

In the case of Q14P, the abundance fitness is -1 ± 0.22.

Regarding Q14D, the abundance fitness was -0.166 ± 0.18.

Q14V: the abundance fitness was -0.129 ± 0.14.

For Q14N, the abundance fitness was 0.016 ± 0.15.

With Q14F, the abundance fitness was -0.26 ± 0.12.

On to T23M, for which the abundance fitness was determined as 0.024 ± 0.2.

As to T23D, the abundance fitness is -0.308 ± 0.2.

Regarding T23F, the abundance fitness was -0.035 ± 0.11.

As for T23G, the abundance fitness is -0.248 ± 0.2.

In the case of T23H, the abundance fitness was -0.146 ± 0.13.

For T23E, the abundance fitness was -0.077 ± 0.16.

As for T23I, the abundance fitness is -0.189 ± 0.12.

Take T23S: the abundance fitness was 0.032 ± 0.1.

For the variant T23P, the abundance fitness was -0.596 ± 0.14.

For the variant T23V, the abundance fitness was -0.162 ± 0.17.

As for T23N, the abundance fitness amounted to 0.122 ± 0.15.

T23L: the abundance fitness is -0.22 ± 0.099.

Turning to T23Y, the abundance fitness amounted to 0.05 ± 0.12.

In the case of T23K, the abundance fitness is -0.696 ± 0.19.

With T23W, the abundance fitness is -0.631 ± 0.19.

Turning to T23R, the abundance fitness is -0.179 ± 0.11.

In the case of T23Q, the abundance fitness is -0.455 ± 0.27.

On to T23A, for which the abundance fitness was -0.337 ± 0.14.

As for C9K, the abundance fitness was -0.425 ± 0.19.

On to C9P, for which the abundance fitness is -0.756 ± 0.14.

As for C9G, the abundance fitness is -0.669 ± 0.14.

C9Y: the abundance fitness was -0.74 ± 0.11.

On to C9D, for which the abundance fitness was -0.743 ± 0.19.

For C9W, the abundance fitness was -0.716 ± 0.13.

On to C9R, for which the abundance fitness was -0.62 ± 0.1.

As to C9F, the abundance fitness was -0.975 ± 0.17.

In the case of C9N, the abundance fitness was -0.353 ± 0.15.

As to C9Q, the abundance fitness is -0.551 ± 0.15.

For the variant C9A, the abundance fitness is -0.96 ± 0.18.

With C9V, the abundance fitness was -0.633 ± 0.14.

For the variant C9L, the abundance fitness is -0.681 ± 0.1.

C9H: the abundance fitness was -0.786 ± 0.17.

On to C9E, for which the abundance fitness was -0.548 ± 0.21.

As to G16F, the abundance fitness is -0.156 ± 0.28.

With G16I, the abundance fitness came to 0.079 ± 0.17.

For G16P, the abundance fitness is -0.423 ± 0.13.

As for G16H, the abundance fitness is -0.057 ± 0.17.

With G16D, the abundance fitness is -0.053 ± 0.18.

On to G16W, for which the abundance fitness was found to be 0.025 ± 0.12.

For the variant G16K, the abundance fitness was 0.346 ± 0.13.

Regarding G16R, the abundance fitness is 0.197 ± 0.083.

On to G16N, for which the abundance fitness is 0.157 ± 0.16.

Turning to G16V, the abundance fitness was -0.113 ± 0.11.

For the variant G16M, the abundance fitness is -0.237 ± 0.15.

Turning to G16S, the abundance fitness worked out at 0.118 ± 0.1.

In the case of G16L, the abundance fitness was -0.097 ± 0.11.

As for G16Q, the abundance fitness is -0.251 ± 0.19.

Turning to G16Y, the abundance fitness amounted to 0.033 ± 0.15.

As to G16E, the abundance fitness turned out to be 0.07 ± 0.15.

Consider G16T, for which the abundance fitness was found to be 0.234 ± 0.13.

Regarding G16C, the abundance fitness is -0.256 ± 0.14.

As to Q13E, the abundance fitness was -0.09 ± 0.12.

As to Q13H, the abundance fitness came out at 0.059 ± 0.11.

In the case of Q13G, the abundance fitness was -0.194 ± 0.1.

For the variant Q13S, the abundance fitness is -0.019 ± 0.084.

On to Q13M, for which the abundance fitness was determined as 0.084 ± 0.09.

For Q13R, the abundance fitness is 0.01 ± 0.081.

As for Q13F, the abundance fitness worked out at 0.012 ± 0.12.

In the case of Q13C, the abundance fitness was -0.048 ± 0.12.

Consider Q13Y, for which the abundance fitness is -0.015 ± 0.11.

Take Q13K: the abundance fitness was -0.051 ± 0.1.

Q13D: the abundance fitness is -0.346 ± 0.12.

For the variant Q13N, the abundance fitness is -0.084 ± 0.13.

Q13P: the abundance fitness was -0.783 ± 0.13.

With Q13A, the abundance fitness was -0.237 ± 0.1.

Turning to Q13V, the abundance fitness was -0.057 ± 0.084.

For the variant Q13W, the abundance fitness is -0.363 ± 0.12.

As for V11W, the abundance fitness was -0.266 ± 0.089.

For the variant V11N, the abundance fitness amounted to 0.182 ± 0.094.

Take V11S: the abundance fitness was 0.284 ± 0.068.

V11P: the abundance fitness came out at 0.029 ± 0.087.

With V11Q, the abundance fitness was -0.217 ± 0.098.

Take V11A: the abundance fitness is -0.143 ± 0.079.

Regarding V11E, the abundance fitness worked out at 0.277 ± 0.08.

In the case of V11D, the abundance fitness was found to be 0.178 ± 0.089.

V11M: the abundance fitness turned out to be 0.279 ± 0.083.

Take V11C: the abundance fitness worked out at 0.184 ± 0.089.

With V11H, the abundance fitness turned out to be 0.362 ± 0.11.

For the variant V11K, the abundance fitness worked out at 0.258 ± 0.087.

Regarding V11L, the abundance fitness was found to be 0.145 ± 0.073.

Regarding V11Y, the abundance fitness was 0.085 ± 0.1.

For V11F, the abundance fitness is 0.138 ± 0.095.

Turning to V11T, the abundance fitness came out at 0.269 ± 0.078.

Turning to V11R, the abundance fitness is 0.12 ± 0.072.

As to E10G, the abundance fitness is -0.139 ± 0.089.

Consider E10K, for which the abundance fitness stood at 0.169 ± 0.13.

For the variant E10S, the abundance fitness was determined as 0.064 ± 0.097.

For the variant E10C, the abundance fitness is 0.046 ± 0.12.

With E10H, the abundance fitness was determined as 0.114 ± 0.16.

In the case of E10A, the abundance fitness was -0.083 ± 0.11.

Turning to E10T, the abundance fitness is 0.132 ± 0.12.

Consider E10V, for which the abundance fitness was determined as 0.137 ± 0.1.

E10M: the abundance fitness is -0.301 ± 0.13.

Consider E10N, for which the abundance fitness came out at 0.268 ± 0.14.

Turning to E10F, the abundance fitness is -0.08 ± 0.14.

On to E10L, for which the abundance fitness was 0.259 ± 0.097.

Turning to E10P, the abundance fitness is -0.006 ± 0.14.

For E10Q, the abundance fitness came out at 0.116 ± 0.18.

Take E10Y: the abundance fitness worked out at 0.158 ± 0.12.

As for E10D, the abundance fitness was found to be 0.169 ± 0.13.

With E10R, the abundance fitness came out at 0.027 ± 0.086.
